Test results reported in patent US7795221B2, “Linear natriuretic peptide constructs” (Palatin Technologies, Inc., priority 2006, dated 2010).
Square brackets hold non-standard residues; d marks the D form. Ends that are not written are not given here. Peptide text beside a SMILES is read from it. * marks the point of attachment. Piperazin2one(3S-Bu,6R-CO) = CCCC[C@@H]1NC[C@H](C(=O)*)NC1=O; X1 = N=C(N)NCCC[C@H]1C(=O)N[C@@H](C(N)=O)CN1*; keto‑piperazine surrogate = not defined here; Nle = CCCC[C@H](N)C(=O)O

T1: human natriuretic peptide receptor A (human, UniProt P16066 33-1061)
T1 sequence (looked up): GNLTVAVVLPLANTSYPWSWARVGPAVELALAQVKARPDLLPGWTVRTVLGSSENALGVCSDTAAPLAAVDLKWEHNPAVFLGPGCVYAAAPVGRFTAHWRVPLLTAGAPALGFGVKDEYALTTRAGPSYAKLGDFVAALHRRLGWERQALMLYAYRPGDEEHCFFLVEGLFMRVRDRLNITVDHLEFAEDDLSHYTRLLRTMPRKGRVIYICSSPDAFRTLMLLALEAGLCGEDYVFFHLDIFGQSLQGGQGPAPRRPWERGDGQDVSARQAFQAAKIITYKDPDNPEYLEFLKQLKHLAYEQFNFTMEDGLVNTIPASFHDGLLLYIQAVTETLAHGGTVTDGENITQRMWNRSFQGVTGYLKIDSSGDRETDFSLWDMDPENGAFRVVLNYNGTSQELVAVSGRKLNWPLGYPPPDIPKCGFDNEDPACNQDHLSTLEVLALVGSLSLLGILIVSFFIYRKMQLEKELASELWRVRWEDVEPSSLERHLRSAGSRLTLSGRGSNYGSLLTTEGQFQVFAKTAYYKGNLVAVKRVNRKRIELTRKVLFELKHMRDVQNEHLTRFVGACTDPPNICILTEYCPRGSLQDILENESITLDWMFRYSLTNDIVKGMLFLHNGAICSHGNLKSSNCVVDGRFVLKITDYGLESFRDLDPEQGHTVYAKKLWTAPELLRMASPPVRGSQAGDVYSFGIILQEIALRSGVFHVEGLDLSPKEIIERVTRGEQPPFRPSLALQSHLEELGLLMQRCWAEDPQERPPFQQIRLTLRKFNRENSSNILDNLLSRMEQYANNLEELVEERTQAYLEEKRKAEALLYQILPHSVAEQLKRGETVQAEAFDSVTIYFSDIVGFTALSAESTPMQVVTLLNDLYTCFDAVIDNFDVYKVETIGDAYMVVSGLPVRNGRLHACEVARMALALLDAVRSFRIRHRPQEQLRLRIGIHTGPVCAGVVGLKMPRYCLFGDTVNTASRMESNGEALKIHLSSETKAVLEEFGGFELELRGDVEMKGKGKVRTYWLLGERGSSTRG


Key:
[1] = parameters: species or system Sprague-Dawley rats; conditions: rat, in vivo, iv, 2 mg/kg
Method: . […] The total run time was 6 minutes.

[2] = target: T1, human natriuretic peptide receptor A; assay: cell-based or functional assay
[3] = target: T1, human natriuretic peptide receptor A; assay: competitive inhibition of [125I]-ANP binding to HEK-hNPRA membrane homogenates
Method: Competitive binding assay. A competitive inhibition binding assay was performed using crude membrane homogenates prepared from HEK-hNPRA cells. To prepare membrane homogenates, cells were rinsed with phosphate-buffered saline and incubated for 15 minutes at 4° C. in hypotonic lysis buffer (10 mM Tris, pH 7.4+5 mM EDTA). Cells were transferred from plates to polypropylene tubes and homogenized. Homogenates were centrifuged at 25,000×g for 20 minutes. Pellets were resuspended in buffer consisting of 50 mM Tris (pH 7.4) and 1 mM EDTA, homogenized and centrifuged at 25,000×g for 20 minutes. Pellets were resuspended in buffer consisting of 100 mM Tris (pH 7.4) and 10 mM MgCl_2 and stored at −80° C. until needed. On the day of an assay, homogenates were thawed and homogenized. […] Assays were stopped by addition of cold wash buffer (phosphate-buffered saline) followed by filtration using a vacuum manifold. Bound radioactivity was determined using a gamma counter. […] Data were analyzed using GraphPad Prism® curve-fitting software.

Row | Molecule | AUC [1] | Vd [1] | clearance [1] | half-life [1] | EC50 (accumulation of intracellular cGMP) [2] | Ki [3]
1 | CCCC[C@@H]1NC[C@H](C(=O)N[C@@H](C)C(=O)N[C@@H](Cc2c[nH]cn2)C(=O)N[C@@H](Cc2ccccc2)C(=O)NCC(=O)NCC(=O)N[C@@H](CCCNC(=N)N)C(=O)N[C@@H](CCCC)C(=O)N[C@@H](CC(=O)O)C(=O)N[C@@H](CCCNC(=N)N)C(=O)N[C@H](C(=O)N[C@@H](CO)C(=O)N[C@@H](C)C(=O)N[C@@H](Cc2ccc(O)cc2)C(=O)N2C[C@H](C(N)=O)NC(=O)[C@@H]2CCCNC(=N)N)[C@@H](C)CC)NC1=O [Construct 1-30] ({Piperazin2one(3S-Bu,6R-CO)}-AHFGGR[Nle]DRISAY-X1) | 0.139 µM·h | 0.6 L/kg | 131 mL/min/kg | 6 min |  | 
2 | [keto‑piperazine surrogate]AHFGGR[Nle]DRISAYR (reading uncertain; also: further groups not given here, Linear synthetic construct) [Construct 1-9] |  |  |  |  | 550 nM | 14.5 nM
3 | [keto‑piperazine surrogate]AHFGGR[Nle]DRISAY[keto‑piperazine surrogate] (reading uncertain; also: further groups not given here, Linear synthetic construct) [Construct 1-30] |  |  |  |  | 80.5 nM | 8.7 nM
4 | [keto‑piperazine surrogate]AHFGGR[Nle]DRISAY[keto‑piperazine surrogate] (reading uncertain; also: further groups not given here, Linear synthetic construct) [Construct 1-49] |  |  |  |  | ~12 nM | 0.2 nM
5 | [Nle]AHFGGR[Nle]DRISAY[keto‑piperazine surrogate] (reading uncertain; also: further groups not given here, Linear synthetic construct modelled on mini-ANP) [Construct 1-16] |  |  |  |  | 340 nM | 88.5 nM
